The results in this text go back to patent publication US20230340151A1 (Pfizer, published 2023).

In test [1] the target is T1, Murine GUCY2C-ECD cleaved (mouse, UniProt Q3UWA6 20-433).
T1 sequence: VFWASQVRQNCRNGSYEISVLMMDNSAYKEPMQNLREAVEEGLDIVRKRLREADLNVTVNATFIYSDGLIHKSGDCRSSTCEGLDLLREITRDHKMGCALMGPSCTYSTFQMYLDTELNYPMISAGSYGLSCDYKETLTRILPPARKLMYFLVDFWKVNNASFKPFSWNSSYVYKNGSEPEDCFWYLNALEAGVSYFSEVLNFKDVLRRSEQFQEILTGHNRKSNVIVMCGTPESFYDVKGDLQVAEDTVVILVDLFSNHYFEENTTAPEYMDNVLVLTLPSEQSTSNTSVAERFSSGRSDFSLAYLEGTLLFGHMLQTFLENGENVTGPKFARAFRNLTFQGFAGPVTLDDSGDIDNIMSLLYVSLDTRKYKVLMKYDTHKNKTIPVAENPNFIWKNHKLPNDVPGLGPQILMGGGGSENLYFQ
In words: SPR, GUCY2c directly immobilized, 37 C. (SPR reads the build-up and loss of mass on a sensor chip optically.)
Procedure: (§1) Human GUCY2c, cyno GUCY2c and mouse GUCY2c were directly immobilized onto three different flow cells of a CM5 Sensor Chip (BR100530, GE Healthcare) surface using an amine coupling kit (BR100050, GE Healthcare) according to the manufacturer's protocol. […] Flow cell 1 was used as a reference flow cell. […] The dissociation was monitored for 400 seconds and the surface was regenerated with 10 mM Glycine pH 2.1. The running and sample buffer was 10 mM HEPES pH 7.4, 0.15 M NaCl, 3 mM EDTA, 0.05% P-20 (HBS-EP+). The data were double referenced. Binding affinities and rate constants were determined by fitting the resulting sensorgram data to a 1:1 Langmuir model in BIACORE™ T200 Evaluation software version 3.0 (GE Healthcare).

Test [2] deals with T2, CID1881 (human-chicken GUCY2c chimera) (human/chicken).
T2 chain: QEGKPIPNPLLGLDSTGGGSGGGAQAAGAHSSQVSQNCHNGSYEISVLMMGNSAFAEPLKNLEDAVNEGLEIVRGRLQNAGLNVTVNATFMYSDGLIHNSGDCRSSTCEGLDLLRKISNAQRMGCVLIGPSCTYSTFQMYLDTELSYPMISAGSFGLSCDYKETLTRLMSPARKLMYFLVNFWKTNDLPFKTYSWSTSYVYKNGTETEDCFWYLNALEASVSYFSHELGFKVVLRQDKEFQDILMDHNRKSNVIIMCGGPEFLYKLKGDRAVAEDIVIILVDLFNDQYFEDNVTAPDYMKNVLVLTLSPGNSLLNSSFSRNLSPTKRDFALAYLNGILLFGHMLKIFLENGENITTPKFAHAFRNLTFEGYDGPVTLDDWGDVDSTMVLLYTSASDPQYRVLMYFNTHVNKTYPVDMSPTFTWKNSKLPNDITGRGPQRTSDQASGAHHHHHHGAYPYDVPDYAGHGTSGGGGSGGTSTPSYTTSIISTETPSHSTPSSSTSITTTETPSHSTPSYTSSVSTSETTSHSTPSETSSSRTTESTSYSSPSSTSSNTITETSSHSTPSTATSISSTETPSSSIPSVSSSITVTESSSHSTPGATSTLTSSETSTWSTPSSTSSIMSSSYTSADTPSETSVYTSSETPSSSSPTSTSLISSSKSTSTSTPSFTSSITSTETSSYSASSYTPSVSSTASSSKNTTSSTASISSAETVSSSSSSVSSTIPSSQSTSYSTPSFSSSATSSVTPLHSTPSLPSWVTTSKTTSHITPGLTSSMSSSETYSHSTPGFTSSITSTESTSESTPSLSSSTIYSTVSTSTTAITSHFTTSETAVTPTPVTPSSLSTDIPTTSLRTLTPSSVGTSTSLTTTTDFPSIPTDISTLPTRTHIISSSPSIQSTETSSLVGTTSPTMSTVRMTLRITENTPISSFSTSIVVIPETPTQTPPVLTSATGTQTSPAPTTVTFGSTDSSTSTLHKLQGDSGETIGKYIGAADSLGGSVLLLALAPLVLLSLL
Briefly: flow cytometry on cells displaying the construct. Background: Flow cytometry measures light scatter and fluorescence of single cells or particles in a stream.
Source text: (§2) Cells were then washed three times with PBS+0.5% BSA buffer. […] Cells were washed three times with PBS+0.5% BSA buffer and then analyzed on a flow cytometer.
(§3) MFI (median fluorescence intensity) of anti-GUCY2c antibody binding to the cells was normalized to expression on cell surface measured by MFI of anti-tag antibodies. All the cells expressed V5 and HA on the cell surface for expression normalization.

The target in test [3] is CID1873 (human GUCY2c patch mutant) (human/chicken). Briefly: flow cytometry on cells displaying the construct.
Source text: as §2, §3
The target of test [4] is CID1944 (human GUCY2c point mutant) (human). Briefly: flow cytometry on cells displaying the construct.
Source text: as §2, §3
Test [5] addresses T1, Murine GUCY2C-ECD cleaved. In words: SPR, GUCY2c directly immobilized, 25 C.
Procedure: as §1
Test [6] has as its target T3, Cynomolgus GUCY2C-ECD Cleaved (cynomolgus, UniProt P25092 24-430 (human entry)).
T3 construct: also called CyGUCY2C
T3 chain: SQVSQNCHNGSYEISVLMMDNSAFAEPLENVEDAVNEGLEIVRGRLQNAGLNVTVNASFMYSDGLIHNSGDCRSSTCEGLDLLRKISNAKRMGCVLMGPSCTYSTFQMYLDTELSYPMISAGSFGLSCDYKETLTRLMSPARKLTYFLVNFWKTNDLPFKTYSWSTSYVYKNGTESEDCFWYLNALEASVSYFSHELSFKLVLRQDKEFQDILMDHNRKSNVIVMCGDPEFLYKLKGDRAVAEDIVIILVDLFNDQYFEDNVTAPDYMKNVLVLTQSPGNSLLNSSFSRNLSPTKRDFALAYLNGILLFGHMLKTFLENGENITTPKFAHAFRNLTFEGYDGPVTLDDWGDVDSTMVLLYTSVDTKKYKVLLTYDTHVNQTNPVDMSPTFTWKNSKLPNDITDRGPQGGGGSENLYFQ
Briefly: direct DELFIA, 60 C.

Test [7] addresses T4, Cynomolgus CD3 epsilon-delta (cynomolgus).
T4 chain: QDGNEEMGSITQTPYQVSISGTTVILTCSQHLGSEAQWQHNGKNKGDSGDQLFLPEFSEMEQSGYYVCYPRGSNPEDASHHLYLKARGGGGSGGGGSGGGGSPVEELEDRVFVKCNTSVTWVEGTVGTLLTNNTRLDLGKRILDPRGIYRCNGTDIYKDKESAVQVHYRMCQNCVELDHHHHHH
In words: SPR, CD3 captured by anti-His, printed 25 C (Table 33F).

For orientation: Kd means the concentration at which binding is half-saturated. A word on the koff: it is a measure of how fast the partners let go of each other. A lower koff goes with slow dissociation. The kon is the rate constant with which the complex forms. Higher therefore signals faster complex formation. Usually EC50 stands for the concentration that produces a half-maximal response. Read a low EC50 as greater potency.

B1: GUCY2C-1608 (bispecific antibody)
chain 1: DIQLTQSPSSLSASVGDRVTITCRASESVDYYGSSLLQWYQQKPGKAPKLLIYAASKLASGVPSRFSGSGSGTDFTLTISSLQPEDFATYYCQQTRKAYTFGQGTKLEIKGGGSGGGGEVQLVESGGGLVQPGGSLRLSCAASGFTFSDYYMTWVRQAPGKGLEWVAFIRNQARGYTSDHNPSVKGRFTISRDNAKNSLYLQMNSLRAEDTAVYYCARDRPSYYVLDYWGQGTTVTVSSGCPPCPAPEAAGAPSVFLFPPKPKDTLMISRTPEVTCVVVDVSHEDPEVKFNWYVDGVEVHNAKTKPREEQYNSTYRVVSVLTVLHQDWLNGKEYKCKVSNKALPAPIEKTISKAKGQPREPQVCTLPPSREEMTKNQVSLWCLVKGFYPSDIAVEWESNGQPENNYKTTPPVLDSDGSFFLYSKLTVDKSRWQQGNVFSCSVMHEALHNHYTQKSLSLSPG
chain 2: DIQMTQSPSSLSASVGDRVTITCTSSQSLFNVRSQKNYLAWYQQKPGKAPKLLIYWASTRESGVPSRFSGSGSGTDFTLTISSLQPEDFATYYCKQSYDLFTFGGGTKVEIKGGGGSGGGGEVQLVESGGGLVQPGGSLRLSCAASGFTFSSYWMHWVRQAPGKGLEWIGEIKPSNELTNVHEKFKDRFTISVDKAKNSAYLQMNSLRAEDTAVYYCTRTITTTEGYWFFDVWGQGTLVTVSSGCPPCPAPEAAGAPSVFLFPPKPKDTLMISRTPEVTCVVVDVSHEDPEVKFNWYVDGVEVHNAKTKPREEQYNSTYRVVSVLTVLHQDWLNGKEYKCKVSNKALPAPIEKTISKAKGQPREPQVYTLPPCREEMTKNQVSLSCAVKGFYPSDIAVEWESNGQPENNYKTTPPVLDSDGSFFLVSKLTVDKSRWQQGNVFSCSVMHEALHNHYTQKSLSLSPG
notes: also called GUCY2c CD3 bispecific
In the case of B1, the Kd in test [1] worked out at 90.2 nM; in test [5], 17.3 nM; in test [7] it was 130 nM. Also, the koff in test [1] came out at 0.0116 s⁻¹; in test [5], 0.00157 s⁻¹; in test [7], 0.0665 s⁻¹. Further, the kon in test [1] worked out at 129000 M⁻¹ s⁻¹; in test [5], 91200 M⁻¹ s⁻¹; in test [7], 514000 M⁻¹ s⁻¹. The binding result in test [2], in test [3] and in test [4] was “binds” each time. The molecule also registered an EC50 in test [6] of 49.9 nM.
